# Laboratory results as given in patent publication US20210324359A1, “USE OF GRAM-NEGATIVE LYSIN-ANTIMICROBIAL PEPTIDE (AMP) POLYPEPTIDE CONSTRUCTS IN TREATING ENDOCARDITIS” (priority 2020, published 2021).
# Like-named read-outs stand apart in the source and are kept apart here.
# Key:
# [1] = test system: P. aeruginosa isolate CFS 1558 (PA20); format: in vivo; conditions: for Log10 CFU/g of vegetation: rabbit lung
# Procedure: A rabbit pulmonary model was used to assess the efficacy of the GN370 lysin alone and in combination with an antibiotic (meropenem). Initially, rabbits were infected intratracheally with P. aeruginosa isolate CFS 1558 (PA20) (3×10^9 CFU). Treatment commenced 6 hours post-infection.
# [2] = test system: P. aeruginosa (PA20); experiment: Rabbit infective endocarditis model (Tables 28-32, FIGS. 5-8); format: in vivo, Pseudomonas aeruginosa in rabbits
# Procedure: Initially, a polyethylene catheter was placed into the rabbits' right ventricle and secured. 48 hours after catheter placement, rabbits were infected intravenously with P. aeruginosa (PA20) (6×10^9 CFU/mL). Treatment commenced 24 hours post-infection.
# Data were analyzed using the Kruskal-Wallis method for multiple comparison and then adjusted with a false discovery rate approach (Benjamini-Hochberg method), using StatsDirect Software. A p-value of <0.05 was considered statistically significant.
# [3] = test system: Pseudomonas aeruginosa biofilm; experiment: MBEC in CAA supplemented with […] human serum (Table 14); format: cell-based
# Method in brief: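 P. aeruginosa biofilms were washed and exposed to 2-fold lysin dilutions for 24 h at 37 °C, then washed, dried and stained with 0.05% crystal violet for 10 min. MBEC determined by standard methods in medium supplemented with human serum.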
# [4] = test system: carbapenem-resistant P. aeruginosa strains; experiment: Resensitization of carbapenem-resistant strains, combinations with imipenem or meropenem (Tables 18-22); format: cell-based, Pseudomonas aeruginosa; conditions: for FICI: isolate WC-452
# [5] = test system: P. aeruginosa isolates; experiment: MIC against a range of isolates in CAA + […] human serum (Table 11); format: cell-based, Pseudomonas aeruginosa
# [6] = test system: 15 P. aeruginosa isolates; experiment: MIC of GN370 in dog, human, rabbit and rat serum and CAAT; meropenem in CAMHB (Table 33); format: cell-based, Pseudomonas aeruginosa; conditions: for MIC90: 15 isolates; for MIC GN370: diluted CAAT media
# [7] = single dose of GN370 + meropenem
molecule,measurement,setting,value
"GN370: lysin-AMP construct: MIDR, FIRL and NPTH moieties N-terminal to GN202 lysin (SEQ ID NO: 44) (protein) MIDRFIRLNPTHGPRRPRRPGRRAPVRTSQRGIDLIKSFEGLRLSAYQDSVGVWTIGYGTTRGVTRYMTITVEQAERMLSNDIQRFEPELDRLAKVPLNQNQWDALMSFVYNLGAANLASSTLLDLLNKGDYQGAADQFPHWVNAGGKRLDGLVKRRAAERALFLEPLS","Bacterial burden, Kidneys",[1]; GN370 3 mg/kg,5.06 ± 1.05 log10 CFU/g
same,"Bacterial burden, Lung 1",[1]; GN370 3 mg/kg,6.28 ± 1.12 log10 CFU/g
same,"Bacterial burden, Lung 2",[1]; GN370 3 mg/kg,6.43 ± 1.01 log10 CFU/g
same,"Bacterial burden, Spleen",[1]; GN370 3 mg/kg,5.23 ± 1.25 log10 CFU/g
same,"Bacterial burden, Kidneys",[1]; GN370 10 mg/kg,3.46 ± 0.78 log10 CFU/g
same,"Bacterial burden, Lung 1",[1]; GN370 10 mg/kg,6.63 ± 1.00 log10 CFU/g
same,"Bacterial burden, Lung 2",[1]; GN370 10 mg/kg,5.53 ± 1.75 log10 CFU/g
same,"Bacterial burden, Spleen",[1]; GN370 10 mg/kg,3.76 ± 0.44 log10 CFU/g
same,reduction in CFUs in the lungs,"[1]; GN370 alone, increasing concentrations, compared to pretreatment control",4 log10
same,"additional decrease of bacterial density in lung, kidney and spleen","[1]; GN-370 (10 mg/kg) in addition to meropenem, compared to meropenem or GN-370 alone",2 log10 CFU/g
same,decrease of mean bacterial density in lungs,"[1]; agent alone, compared to the starting CFU and the vehicle control group",about 2 log10 CFU/g
same,Log10 CFU/g of vegetation,[1]; GN370 3 mg/kg,6.52 ± 1.01 Log10 CFU/g
same,Log10 CFU/g of vegetation,[1]; GN370 10 mg/kg,6.25 ± 1.35 Log10 CFU/g
same,Log10 CFU/g of vegetation,[1]; GN370 30 mg/kg,7.88 ± 0.50 Log10 CFU/g
same,tolerability in infected rabbits,[1]; tested doses,well tolerated at the tested doses
same,survival until the end of the study,[1]; treated infected rabbits,all treated infected animals survived until the end of the study
same,change of cardiac vegetations counts vs untreated controls,[2]; meropenem + 3 mg/kg GN370,−1.3 log10 CFU/g
same,change of cardiac vegetations counts vs vehicle-treated controls,[2]; meropenem + 3 mg/kg GN370,−0.8 log10 CFU/g
same,change of cardiac vegetations counts vs untreated controls,[2]; meropenem + 10 mg/kg GN370,−1.1 log10 CFU/g
same,change of cardiac vegetations counts vs vehicle-treated controls,[2]; meropenem + 10 mg/kg GN370,−0.5 log10 CFU/g
same,"P. aeruginosa densities in kidney, spleen and lung vs meropenem alone",[2]; meropenem + GN370 at all doses,−0.6 to−2.2 log10 CFU/g
same,"P. aeruginosa densities in kidney, spleen and lung vs untreated control",[2]; meropenem + GN370 at all doses,−2.0 to−3.6 log10 CFU/g
same,"P. aeruginosa densities in kidney, spleen and lung vs vehicle",[2]; meropenem + GN370 at all doses,−1.7 to−3.2 log10 CFU/g
same,CFU reduction in cardiac vegetation tissues,[2]; [7],about 1 log kill
same,"CFU reduction in kidney, spleen and lung tissues",[2]; [7],about 3 log kill
same,CFU reduction in cardiac vegetations,"[2]; three days of GN370 at 10 mg/kg + 5 mg/kg meropenem, compared to both the start of treatment and a vehicle control",> 2 log CFU
same,MBEC in CAA supplemented with […] human serum,[3],1 µg/mL
same,resensitization to carbapenems in synergistic combinations,"[4]; imipenem (IPM) and meropenem (MEM), carbapenem-resistant isolates",reductions of IPM and MEM MICS to below breakpoint values
same,FICI,[4]; lysin + imipenem,0.094
same,FICI,[4]; lysin + meropenem,0.125
same,"Antibiotic MIC / Lysin MIC, Alone",[4]; vs. WC-452 (Table 22),2
same,activity against P. aeruginosa isolates in human serum or SURVANTA,[5]; Tables 11 and 12,active against a variety of P. aeruginosa isolates
same,"MIC, CAA + […] Human Serum",[5]; strain CFS 1109 (ATCC 17646),1 µg/mL
same,"MIC, CAA + […] Human Serum",[5]; strain CFS 1292,2 µg/mL
same,"MIC, CAA + […] Human Serum",[5]; strain CFS1539 (PA1),1 µg/mL
same,"MIC, CAA + […] Human Serum",[5]; strain CFS 1540 (PA2),1 µg/mL
same,"MIC, CAA + […] Human Serum",[5]; strain CFS 1541 (PA3),1 µg/mL
same,"MIC, CAA + […] Human Serum",[5]; strain CFS 1557 (PA19),4 µg/mL
same,"MIC, CAA + […] Human Serum",[5]; strain CFS 1558 (PA20),0.5 µg/mL
same,"MIC, CAA + […] Human Serum",[5]; strain CFS 1559 (PA21),2 µg/mL
same,"MIC, CAA + […] Human Serum",[5]; strain CFS 1560 (PA22),2 µg/mL
same,"MIC, CAA + […] Human Serum",[5]; strain CFS 1561 (PA23),2 µg/mL
same,"MIC, CAA + […] Human Serum",[5]; strain CFS 1562 (PA24),2 µg/mL
same,"MIC, CAA + […] Human Serum",[5]; strain CFS 1596 (PA26),1 µg/mL
same,"MIC, CAA + […] Human Serum",[5]; strain CFS 1597 (PA27),0.5 µg/mL
same,"MIC, CAA + […] Human Serum",[5]; strain CFS 1669 (PA41),2 µg/mL
same,"MIC, CAA + […] Human Serum",[5]; strain CFS 1674 (PA46),2 µg/mL
same,"MIC, CAA + […] Human Serum",[5]; strain CFS 1675 (PA47),1 µg/mL
same,"MIC, CAA + […] Human Serum",[5]; strain CFS 1766 (ATCC 27853),4 µg/mL
same,MIC90,[6]; dog serum,4 µg/mL
same,MIC90,[6]; human serum,2 µg/mL
same,MIC90,[6]; rabbit serum,2 µg/mL
same,MIC90,[6]; rat serum,32 µg/mL
same,MIC GN370,[6]; strain AR0231,2 µg/mL
same,Serum MIC Dog,"[6]; strain AR0231, dog serum",2 µg/mL
same,Serum MIC Human,"[6]; strain AR0231, human serum",1 µg/mL
same,Serum MIC Rabbit,"[6]; strain AR0231, rabbit serum",1 µg/mL
same,Serum MIC Rat,"[6]; strain AR0231, rat serum",16 µg/mL
same,MIC GN370,[6]; strain AR0241,2 µg/mL
same,Serum MIC Dog,"[6]; strain AR0241, dog serum",1 µg/mL
same,Serum MIC Human,"[6]; strain AR0241, human serum",1 µg/mL
same,Serum MIC Rabbit,"[6]; strain AR0241, rabbit serum",1 µg/mL
same,Serum MIC Rat,"[6]; strain AR0241, rat serum",32 µg/mL
same,MIC GN370,[6]; strain AR0246,1 µg/mL
same,Serum MIC Dog,"[6]; strain AR0246, dog serum",4 µg/mL
same,Serum MIC Human,"[6]; strain AR0246, human serum",2 µg/mL
same,Serum MIC Rabbit,"[6]; strain AR0246, rabbit serum",2 µg/mL
same,Serum MIC Rat,"[6]; strain AR0246, rat serum",32 µg/mL
same,MIC GN370,[6]; strain ATCC 25668,0.5 µg/mL
same,Serum MIC Dog,"[6]; strain ATCC 25668, dog serum",2 µg/mL
same,Serum MIC Human,"[6]; strain ATCC 25668, human serum",1 µg/mL
same,Serum MIC Rabbit,"[6]; strain ATCC 25668, rabbit serum",2 µg/mL
same,Serum MIC Rat,"[6]; strain ATCC 25668, rat serum",16 µg/mL
same,MIC GN370,[6]; strain ATCC 27853,1 µg/mL
same,Serum MIC Dog,"[6]; strain ATCC 27853, dog serum",2 µg/mL
same,Serum MIC Human,"[6]; strain ATCC 27853, human serum",1 µg/mL
same,Serum MIC Rabbit,"[6]; strain ATCC 27853, rabbit serum",2 µg/mL
same,Serum MIC Rat,"[6]; strain ATCC 27853, rat serum",32 µg/mL
same,MIC GN370,[6]; strain PA1,0.5 µg/mL
same,Serum MIC Dog,"[6]; strain PA1, dog serum",1 µg/mL
same,Serum MIC Human,"[6]; strain PA1, human serum",2 µg/mL
same,Serum MIC Rabbit,"[6]; strain PA1, rabbit serum",2 µg/mL
same,Serum MIC Rat,"[6]; strain PA1, rat serum",16 µg/mL
same,MIC GN370,[6]; strain PA2,0.5 µg/mL
same,Serum MIC Dog,"[6]; strain PA2, dog serum",1 µg/mL
same,Serum MIC Human,"[6]; strain PA2, human serum",1 µg/mL
same,Serum MIC Rabbit,"[6]; strain PA2, rabbit serum",2 µg/mL
same,Serum MIC Rat,"[6]; strain PA2, rat serum",16 µg/mL
same,MIC GN370,[6]; strain PA3,1 µg/mL
same,Serum MIC Dog,"[6]; strain PA3, dog serum",2 µg/mL
same,Serum MIC Human,"[6]; strain PA3, human serum",2 µg/mL
same,Serum MIC Rabbit,"[6]; strain PA3, rabbit serum",2 µg/mL
same,Serum MIC Rat,"[6]; strain PA3, rat serum",16 µg/mL
same,MIC GN370,[6]; strain PA19,1 µg/mL
same,Serum MIC Dog,"[6]; strain PA19, dog serum",1 µg/mL
same,Serum MIC Human,"[6]; strain PA19, human serum",0.5 µg/mL
same,Serum MIC Rabbit,"[6]; strain PA19, rabbit serum",0.5 µg/mL
same,Serum MIC Rat,"[6]; strain PA19, rat serum",32 µg/mL
same,MIC GN370,[6]; strain PA20,1 to 2 µg/mL
same,Serum MIC Dog,"[6]; strain PA20, dog serum",2 µg/mL
same,Serum MIC Human,"[6]; strain PA20, human serum",1 µg/mL
same,Serum MIC Rabbit,"[6]; strain PA20, rabbit serum",2 µg/mL
same,Serum MIC Rat,"[6]; strain PA20, rat serum",32 µg/mL
same,MIC GN370,[6]; strain PA22,2 µg/mL
same,Serum MIC Dog,"[6]; strain PA22, dog serum",2 µg/mL
same,Serum MIC Human,"[6]; strain PA22, human serum",2 µg/mL
same,Serum MIC Rabbit,"[6]; strain PA22, rabbit serum",2 µg/mL
same,Serum MIC Rat,"[6]; strain PA22, rat serum",32 µg/mL
same,MIC GN370,[6]; strain PA23,2 µg/mL
same,Serum MIC Dog,"[6]; strain PA23, dog serum",2 µg/mL
same,Serum MIC Human,"[6]; strain PA23, human serum",1 µg/mL
same,Serum MIC Rabbit,"[6]; strain PA23, rabbit serum",2 µg/mL
same,Serum MIC Rat,"[6]; strain PA23, rat serum",32 µg/mL
same,MIC GN370,[6]; strain PA24,1 µg/mL
same,Serum MIC Dog,"[6]; strain PA24, dog serum",4 µg/mL
same,Serum MIC Human,"[6]; strain PA24, human serum",2 µg/mL
same,Serum MIC Rabbit,"[6]; strain PA24, rabbit serum",2 µg/mL
same,Serum MIC Rat,"[6]; strain PA24, rat serum",16 µg/mL
same,MIC GN370,[6]; strain PA27,0.5 µg/mL
same,Serum MIC Dog,"[6]; strain PA27, dog serum",2 µg/mL
same,Serum MIC Human,"[6]; strain PA27, human serum",2 µg/mL
same,Serum MIC Rabbit,"[6]; strain PA27, rabbit serum",2 µg/mL
same,Serum MIC Rat,"[6]; strain PA27, rat serum",16 µg/mL
same,MIC GN370,[6]; strain PA453,0.5 µg/mL
same,Serum MIC Dog,"[6]; strain PA453, dog serum",0.5 µg/mL
same,Serum MIC Human,"[6]; strain PA453, human serum",0.5 µg/mL
same,Serum MIC Rabbit,"[6]; strain PA453, rabbit serum",0.5 µg/mL
same,Serum MIC Rat,"[6]; strain PA453, rat serum",32 µg/mL
